# Results reported in article PMC2120374 (The Journal of Cell Biology, 1995).
# T1: Mas70p (S. cerevisiae (endogenous in yeast …, UniProt P07213 1-617))
# T1 sequence (looked up): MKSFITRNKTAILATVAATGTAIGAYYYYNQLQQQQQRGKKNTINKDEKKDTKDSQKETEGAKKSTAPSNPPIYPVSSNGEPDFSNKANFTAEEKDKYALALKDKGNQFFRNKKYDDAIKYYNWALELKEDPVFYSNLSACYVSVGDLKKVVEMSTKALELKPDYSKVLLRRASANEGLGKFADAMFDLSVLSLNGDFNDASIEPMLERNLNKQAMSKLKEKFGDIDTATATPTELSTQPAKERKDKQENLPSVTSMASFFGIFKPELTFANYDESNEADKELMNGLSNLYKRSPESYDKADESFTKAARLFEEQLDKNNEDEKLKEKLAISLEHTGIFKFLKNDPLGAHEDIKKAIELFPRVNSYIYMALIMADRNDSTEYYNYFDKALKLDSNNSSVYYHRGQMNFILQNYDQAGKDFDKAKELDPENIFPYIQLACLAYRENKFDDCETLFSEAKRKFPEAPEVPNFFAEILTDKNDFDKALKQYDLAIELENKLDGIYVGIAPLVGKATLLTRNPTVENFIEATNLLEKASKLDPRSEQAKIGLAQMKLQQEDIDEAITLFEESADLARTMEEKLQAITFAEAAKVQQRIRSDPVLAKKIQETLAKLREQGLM
# B1: Mas37p (natural protein)
# chain: MVKGSVHLWGKDGKASLISVDSIALVWFIKLCTSEEAKSMVAGLQIVFSNNTDLSSDGKLPVLILDNGTKVSGYVNIVQFLHKNICTSKYEKGTDYEEDLAIVRKKDRLLEYSLLNYVDVEISRLTDYQLFLNTKNYNEYTKKLFSKLLYFPMWYNTPLQLRSQARENCEEIIGSLTLEDDEEFVESKAMESASQLAQSKTFKIAHKNKIKGKQELQQVKYNLQFDNRLQSCVSNWLAARKKLDDSVILSSDLLFLANLYVQLGLPDGNRIRSKLEQTFGSELLNSMSNKIDDFVHRPSNNLEQRDPQFREQGNVVMSLYNLACKYI
# Target: T1, Mas70p
# Assay: co-IP
binder,measurement,value
B1,stoichiometry N,1 mol Mas37p per mol Mas70p
